Measurements reported in US20240084027A1 (BEIJING MABWORKS, published 2024).
Like-named read-outs stand apart in the source and are kept apart here.

Columns and labels:
[1] = molecular target: monkey PD-L1 on HEK293A/monkey PD-L1 cells (monkey, UniProt Q9NZQ7 19-290 (human entry)); assay: FACS on HEK293A/monkey PD-L1 cells
Protocol: (§1) The bispecific antibodies as prepared above were tested for their binding capability to cell surface human, monkey and mouse CD40 proteins by FACS, using the HEK293A cells prepared in Example 1 that stably expressed human, monkey or mouse CD40. Briefly, a 96-well plate was seeded with 10⁵ HEK293A cells in 50 μl PBS, and then added with 100 μl serially diluted anti-CD40 antibody 714VH2VL2 and the bispecific antibodies of the disclosure (starting concentration at 40 μg/ml). After incubation at 4° C. for 1 h, the plate was washed by PBST for 3 times. The plate was added with 1:500 diluted APC-goat anti-mouse IgG (Cat #:405308, BioLegen, USA), incubated at 4° for 1 h, washed with PBS for 3 times, and subjected to fluorescence measurement in a FACS machine (BD).
(§2) Following the protocol of Example 4, the bispecific antibodies were tested for their binding capability to cell surface human, or monkey PD-L1 proteins by FACS, using the HEK293A cells prepared in Example 1 that stably expressed human or monkey […].

[2] = molecular target: T1, human CD40 on HEK293A/human CD40 cells (human, UniProt P25942 21-277); assay: FACS on HEK293A/human CD40 cells
T1 construct: also called HEK-Blue/CD40 cells
Protocol: as §1

[3] = molecular target: T2, monkey CD40 on HEK293A/monkey CD40 cells (monkey, UniProt P25942 21-277 (human entry)); assay: FACS on HEK293A/monkey CD40 cells
T2 chain: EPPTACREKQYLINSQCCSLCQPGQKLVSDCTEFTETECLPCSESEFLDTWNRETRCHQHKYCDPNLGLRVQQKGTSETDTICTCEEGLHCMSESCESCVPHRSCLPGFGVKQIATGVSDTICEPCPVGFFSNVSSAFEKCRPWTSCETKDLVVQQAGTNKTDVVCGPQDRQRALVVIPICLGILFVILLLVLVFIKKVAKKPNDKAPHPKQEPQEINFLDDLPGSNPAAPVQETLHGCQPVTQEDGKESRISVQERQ
Protocol: as §1

[4] = molecular target: T3, mouse CD40 on HEK293A cells (mouse, UniProt P27512 20-289); assay: FACS on HEK293A cells expressing mouse CD40
T3 sequence: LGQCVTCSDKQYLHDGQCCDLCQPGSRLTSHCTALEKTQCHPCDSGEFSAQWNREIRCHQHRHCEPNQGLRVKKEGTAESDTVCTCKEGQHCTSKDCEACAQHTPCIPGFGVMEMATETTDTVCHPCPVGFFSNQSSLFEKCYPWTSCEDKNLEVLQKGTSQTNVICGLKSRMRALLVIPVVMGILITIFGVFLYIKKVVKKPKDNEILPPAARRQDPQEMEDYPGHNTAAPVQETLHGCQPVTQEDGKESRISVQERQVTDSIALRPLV
Protocol: as §1

[5] = molecular target: T4, human PD-L1 on HEK293A/human PD-L1 cells (human, UniProt Q9NZQ7 19-290); assay: FACS on HEK293A/human PD-L1 cells
T4 sequence (Q9NZQ7 19-290 limits assumed): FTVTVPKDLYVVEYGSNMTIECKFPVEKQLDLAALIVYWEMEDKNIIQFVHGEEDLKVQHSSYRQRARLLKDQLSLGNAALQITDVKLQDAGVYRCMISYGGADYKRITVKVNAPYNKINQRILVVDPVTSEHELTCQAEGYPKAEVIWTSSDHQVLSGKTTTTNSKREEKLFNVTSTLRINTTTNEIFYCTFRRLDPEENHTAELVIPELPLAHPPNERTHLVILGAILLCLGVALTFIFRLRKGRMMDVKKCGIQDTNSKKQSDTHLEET
Protocol: as §1, §2

[6] = molecular target: T1, human CD40 on HEK293A/human CD40 cells; assay: FACS on HEK293A/human CD40 cells; remark: listed apart in the source
Protocol: as §1
(§3) Following the protocols in Example 4 and Example 5, the bi- or multi-specific antibodies of the disclosure were tested for their binding capability to human PD-L1 and human CD40 proteins by FACS using the HEK293A cells prepared in Example 1 that stably expressed human PD-L1 or human CD40.

[7] = molecular target: T4, human PD-L1 on HEK293A/human PD-L1 cells; assay: FACS on HEK293A/human PD-L1 cells; remark: listed apart in the source
Protocol: as §1, §3

[8] = molecular target: T4, human PD-L1 on HEK293A/human PD-L1 cells; assay: FACS on HEK293A/human PD-L1 cells; remark: listed apart in the source
Protocol: as §1, §3

[9] = molecular target: T4, human PD-L1 on HEK293A/human PD-L1 cells; assay: FACS blocking assay on HEK293A/human PD-L1 cells; blocked ligand PD-1-Fc
Protocol: The bispecific antibodies were tested for their blocking activity on PD-1-PD-L1 binding by FACS using the HEK293A cells stably expressing human PD-L1 molecules as prepared in Example 1. Briefly, a 96-well plate was seeded with 10⁵ HEK293A/human PD-L1 cells in 100 μl cell culture medium, and then added with 50 μl serially diluted anti-PD-L1 antibody 56E5VH5VL4 or MBS307-3 molecules. After incubation at 4° C. for 1 h. the plate was washed with PBST for 3 times, added with 100 μl 200 μg/ml PD-1-Fc fusion proteins (Cat #:10377-10211, Sino Biological, CN), incubated at 4° C. for 1 h, washed with PBST for 3 times, and added with 1:500 diluted PE-goat anti-human IgG (Cat #:PAI-86078, Thermofisher, USA). After incubation at 4° C. for 1 h, the plate was washed with PBST for 3 times and measured for fluorescence using a FACS machine (BD).
Following the protocol of Example 7, the bi- or multi-specific antibodies were tested for their capability to block PD-1-PD-L1 binding by FACS, using the HEK293A cells prepared in Example 1 that stably expressed human PD-L1 molecules.

[10] = molecular target: T4, human PD-L1 on HEK293A/human PD-L1 cells; assay: FACS on HEK293A/human PD-L1 cells; remark: listed apart in the source
Protocol: as §1, §3

Chain of monkey PD-L1 on HEK293A/monkey PD-L1 cells (Q9NZQ7 other isoform, or with tags, fused parts or gaps limits assumed): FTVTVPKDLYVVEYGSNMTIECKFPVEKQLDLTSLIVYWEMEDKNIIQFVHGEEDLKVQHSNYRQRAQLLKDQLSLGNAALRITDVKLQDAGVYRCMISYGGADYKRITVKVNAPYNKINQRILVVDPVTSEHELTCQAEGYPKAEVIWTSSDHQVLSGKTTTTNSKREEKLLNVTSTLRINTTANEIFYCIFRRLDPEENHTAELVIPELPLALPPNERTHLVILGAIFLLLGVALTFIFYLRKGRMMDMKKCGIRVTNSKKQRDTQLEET

B1: MBS307-2 (bispecific antibody, human IgG1, kappa, L234A L235A)
heavy: QVQLQESGPGLVKPSQTLSLTCTVSGGSITSDYWNWIRQHPGNKLEYMGYISYTGSTYYNPSLKSRISITRDTSKNQFSLKLSSVTTADTAVYYCARYRDWDVRAMDYWGQGTTVTVSSASTKGPSVFPLAPSSKSTSGGTAALGCLVKDYFPEPVTVSWNSGALTSGVHTFPAVLQSSGLYSLSSVVTVPSSSLGTQTYICNVNHKPSNTKVDKKVEPKSCDKTHTCPPCPAPEAAGGPSVFLFPPKPKDTLMISRTPEVTCVVVDVSHEDPEVKFNWYVDGVEVHNAKTKPREEQYNSTYRVVSVLTVLHQDWLNGKEYKCKVSNKALGAPIEKTISKAKGQPREPQVYTLPPSREEMTKNQVSLTCLVKGFYPSDIAVEWESNGQPENNYKTTPPVLDSDGSFFLYSKLTVDKSRWQQGNVFSCSVMHEALHNHYTQKSLSLSPGSGGGGSGGGGSQVQLQESGPGLVKPSDTLSLTCAVSGYSITTNYYWNWIRQPPGKGLEWMGYIKYDGSNNYNPSLKNRITISVDTSKNQFSLKLSSVTAVDTAVYYCARLDYWGQGTLVTVSSGGGGSGGGGSGGGGSGGGSDVVLTQSPLSLPVTLGQPASISCRSSQSLENSNGNTFLNWFQQRPGQSPRLLIYKVSNRFSGVPDRFSGSGSGTDFTLKISRVEAEDVGVYYCLQVTHVPFTFGQGTKLEIK
light: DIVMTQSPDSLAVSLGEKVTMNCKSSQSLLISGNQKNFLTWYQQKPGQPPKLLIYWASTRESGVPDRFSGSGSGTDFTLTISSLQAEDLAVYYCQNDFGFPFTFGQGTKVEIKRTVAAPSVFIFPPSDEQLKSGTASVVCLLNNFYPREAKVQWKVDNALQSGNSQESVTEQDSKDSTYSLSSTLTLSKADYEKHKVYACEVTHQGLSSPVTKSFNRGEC
notes: Symmetric: full-length anti-PD-L1 antibody (56E5VH5VL4) with an anti-CD40 scFv at the C terminus of each heavy chain
With B1 the “EC50 (read off the curve)” value [1] was ~0.04 µg/mL, the binding result [2] was “binds” and the binding result [3] was “binds”. For the same binder, the binding result [4] was “no binding (tested: starting concentration at 40 µg/ml)” and the “EC50 (read off the curve)” value [5] was ~0.1 µg/mL.

B2: MBS307-8 (bispecific antibody, human IgG1, kappa, L234A L235A)
heavy 1: QVQLQESGPGLVKPSDTLSLTCAVSGYSITTNYYWNWIRQPPGKGLEWMGYIKYDGSNNYNPSLKNRITISVDTSKNQFSLKLSSVTAVDTAVYYCARLDYWGQGTLVTVSSASTKGPSVFPLAPSSKSTSGGTAALGCLVKDYFPEPVTVSWNSGALTSGVHTFPAVLQSSGLYSLSSVVTVPSSSLGTQTYICNVNHKPSNTKVDKKVEPKSCDKTHTCPPCPAPEAAGGPSVFLFPPKPKDTLMISRTPEVTCVVVDVSHEDPEVKFNWYVDGVEVHNAKTKPREEQYNSTYRVVSVLTVLHQDWLNGKEYKCKVSNKALPAPIEKTISKAKGQPREPQVYTLPPSREEMTKNQVSLWCLVKGFYPSDIAVEWESNGQPENNYKTTPPVLDSDGSFFLYSKLTVDKSRWQQGNVFSCSVMHEALHNHYTQKSLSLSPGSGGGGSGGGGSQVQLVQSGAEVKKPGASVKVSCKASGYTFTDYHVNWVRQAPGQGLEWIGWIFPGSGRTFYTDKFKGRVTMTVDTSTSTVYMELSSLRSEDTAVYYCATDYGTSGYGLVYWGQGTTVTVSSGGGGSGGGGSGGGGSGGGGSDIQMTQSPSSLSASVGDRVTITCKASDRINNWLAWYQQKPGKAPKLLISGATSLETGVPSRFSGSGSGTDFTLTISSLQPEDEATYYCQQYWNIPFTFGQGTKLTAK
heavy 2: QVQLQESGPGLVKPSDTLSLTCAVSGYSITTNYYWNWIRQPPGKGLEWMGYIKYDGSNNYNPSLKNRITISVDTSKNQFSLKLSSVTAVDTAVYYCARLDYWGQGTLVTVSSASTKGPSVFPLAPSSKSTSGGTAALGCLVKDYFPEPVTVSWNSGALTSGVHTFPAVLQSSGLYSLSSVVTVPSSSLGTQTYICNVNHKPSNTKVDKKVEPKSCDKTHTCPPCPAPEAAGGPSVFLFPPKPKDTLMISRTPEVTCVVVDVSHEDPEVKFNWYVDGVEVHNAKTKPREEQYNSTYRVVSVLTVLHQDWLNGKEYKCKVSNKALPAPIEKTISKAKGQPREPQVYTLPPSREEMTKNQVSLSCAVKGFYPSDIAVEWESNGQPENNYKTTPPVLDSDGSFFLVSKLTVDKSRWQQGNVFSCSVMHEALHNHYTQKSLSLSPGSGGGGSGGGGSQVQLQESGPGLVKPSQTLSLTCTVSGGSITSDYWNWIRQHPGNKLEYMGYISYTGSTYYNPSLKSRISITRDTSKNQFSLKLSSVTTADTAVYYCARYRDWDVRAMDYWGQGTTVTVSSGGGGSGGGGSGGGGSGGGGSDIVMTQSPDSLAVSLGEKVTMNCKSSQSLLISGNQKNFLTWYQQKPGQPPKLLIYWASTRESGVPDRFSGSGSGTDFTLTISSLQAEDEAVYYCQNDFGFPFTFGQGTKLTAK
light: DVVLTQSPLSLPVTLGQPASISCRSSQSLENSNGNTFLNWFQQRPGQSPRLLIYKVSNRFSGVPDRFSGSGSGTDFTLKISRVEAEDVGVYYCLQVTHVPFTFGQGTKLEIKRTVAAPSVFIFPPSDEQLKSGTASVVCLLNNFYPREAKVQWKVDNALQSGNSQESVTEQDSKDSTYSLSSTLTLSKADYEKHKVYACEVTHQGLSSPVTKSFNRGEC
notes: Asymmetric: knob chain with the 3C2VH6VL5 scFv, hole chain with the 56E5VH5VL4 scFv, linker 3 (long linker); also called MBS307-8-1 + MBS307-8-2
B2 was tested, and the “EC50 (read off the curve)” value [6] was ~0.04 µg/mL and the “EC50 (read off the curve)” value [7] was ~0.5 µg/mL.

B3: anti-PD-L1 antibody 3C2VH6VL5 (antibody, V domains shown)
VH: QVQLVQSGAEVKKPGASVKVSCKASGYTFTDYHVNWVRQAPGQGLEWIGWIFPGSGRTFYTDKFKGRVTMTVDTSTSTVYMELSSLRSEDTAVYYCATDYGTSGYGLVYWGQGTTVTVSS
VL: DIQMTQSPSSLSASVGDRVTITCKASDRINNWLAWYQQKPGKAPKLLISGATSLETGVPSRFSGSGSGTDFTLTISSLQPEDIATYYCQQYWNIPFTFGQGTKVEIK
notes: also called 3C2VH46VL5 [sic]
With B3 the “EC50 (read off the curve)” value [8] was ~0.1 µg/mL, the “IC50 (read off the curve)” value [9] was ~0.5 µg/mL and the “EC50 (read off the curve)” value [10] was ~0.2 µg/mL.
